From patent US7820179B2, “Pegylated PTH as PTH receptor modulators and uses thereof” (Eli Lilly and Company, priority 2006, dated 2010)
No end group written: not given here.

Experiments:
[1] = system: aged osteopenic ovariectomized rats; assay: Aged osteopenic ovariectomized rats: vertebral BMD/BMC, bone biomechanical strength, serum calcium; assay type: in vivo, rat; settings: for Hypercalcemic Dose/Femoral Neck Strength Dose / Hypercalcemic Dose/Midshaft Strength Dose / Hypercalcemic Dose/Vertebral BMC Dose / Hypercalcemic Dose/Vertebral BMD Dose / Hypercalcemic Dose/Vertebral Strength Dose: derived from Table 3; for Vertebral BMC Dose: dose at which Sham level of vertebral BMC is achieved; for Vertebral BMD Dose: dose at which Sham level of vertebral BMD is achieved, s.c. every 6 or 7 days for two months; for Fem Neck Strength Dose: dose at which femoral neck strength comparable to sham vehicle control and positive control is achieved; for Midshaft Strength Dose: dose at which midshaft strength comparable to sham vehicle control and positive control is achieved; for Vertebral Strength Dose: dose at which vertebral strength comparable to sham and positive control is achieved; for Hypercalcemia Dose: sera 24 hours after administration, > means highest dose tested, not reached
Experimental: Hypercalcemia is defined herein as the upper 97.5 percentile serum calcium value of normal ovariectomized vehicle controls for the animal type used, using clinical chemistry data and sera collected from cardiac puncture (International Federation of Clinical Chemistry, H E Solberg in Tietz Fundamentals of Clinical Chemistry, 5th edition, Burtis C A and Ashwood E R, editors, 2001, pp 251-261). The value reflecting the 97.5 percentile is 11.2 mg of calcium per dL of serum from ovx vehicle control. The “Hypercalcemic Dose”, i.e., the dose at which hypercalcemia is observed 24 hours after injection of the test compound using clinical chemistry data and sera collected from cardiac puncture, is determined by interpolation, using regression analysis to fit the calcemic dose response observed 24 hours after administering the compound to ovariectomized rats.
Female Sprague-Dawley rats about 6 months of age are ovariectomized, except for sham controls, and maintained on a 12 hour light/dark cycle at 22° C. with ad lib access to food (TD 89222 with 0.5% Ca and 0.4% P, Teklad, Madison, Wis.) and water. Ovariectomized (Ovx) rats are allowed to lose bone for one month before treatment with compounds of the invention for two additional months. The compound to be tested is subcutaneously administered at various doses (as indicated in Table 3 below) in a vehicle of 20 mM NaH2PO4 in 0.9% NaCl, 3 mg/ml mannitol, pH 5, every 6 or 7 days for two months. Sham and Ovx controls are treated with the vehicle only (“sham vehicle control” and “ovx vehicle control”). Sera are then collected by cardiac puncture under isoflurane anesthesia at necropsy, and analyzed using a clinical chemistry analyzer. Lumbar vertebra L4-6 and left femora are removed, cleaned of soft-tissue and stored in 50% ethanol/saline at 4° C. At room temperature, L-5 in 50% EtOH/saline are wrapped in Parafilm and centered with respect to the QCT gantry (Research M, Stratec). A coronal scout scan of the L-5 vertebra is generated first in 2D before 3D analysis. QCT parameters are measured including BMD (mg/cc), BMC (mg), and cross-sectional area (mm^2). Lumbar vertebra L-5, femoral midshaft, and proximal femur are then prepared for biomechanical testing. Strength (N) is evaluated by loading the specimens to failure as described previously (Sato, et al., Endocrinology, […]:4330-4337, 1997).
Pegylated compounds of the invention are evaluated in this assay relative to a positive control of 3-5 μg/kg/d PTH(1-38). PTH(1-34) and PTH(1-38) are found to be indistinguishable in terms of skeletal efficacy or calcemic effects in osteopenic ovariectomized rats. It has been previously shown that rats administered 5 μg/kg/d (1 nmol/kg/d) PTH(1-34) have a systemic exposure that is about 3 times that of PTH(1-34) (i.e., FORTEO™) in humans (Tashjian and Chabner, J. Bone Miner Res, 17:1151-1161, 2002; Tashjian and Gagel, J. Bone Miner Res, 21:354-365, 2006). […] This is confirmed for PTH(1-38) in this model with a dosing of 3-5 μg/kg/d.

[2] = molecular target: T1, PTHR1 (PTH Receptor 1) (Homo sapiens, UniProt Q03431); assay: PTH receptor internalization in HEK 293 cells transfected with PTHR-emGFP; assay type: cell-based; settings: 100 nM
T1 construct: host or cells: HEK 293 cells
T1 sequence (Q03431 27-593): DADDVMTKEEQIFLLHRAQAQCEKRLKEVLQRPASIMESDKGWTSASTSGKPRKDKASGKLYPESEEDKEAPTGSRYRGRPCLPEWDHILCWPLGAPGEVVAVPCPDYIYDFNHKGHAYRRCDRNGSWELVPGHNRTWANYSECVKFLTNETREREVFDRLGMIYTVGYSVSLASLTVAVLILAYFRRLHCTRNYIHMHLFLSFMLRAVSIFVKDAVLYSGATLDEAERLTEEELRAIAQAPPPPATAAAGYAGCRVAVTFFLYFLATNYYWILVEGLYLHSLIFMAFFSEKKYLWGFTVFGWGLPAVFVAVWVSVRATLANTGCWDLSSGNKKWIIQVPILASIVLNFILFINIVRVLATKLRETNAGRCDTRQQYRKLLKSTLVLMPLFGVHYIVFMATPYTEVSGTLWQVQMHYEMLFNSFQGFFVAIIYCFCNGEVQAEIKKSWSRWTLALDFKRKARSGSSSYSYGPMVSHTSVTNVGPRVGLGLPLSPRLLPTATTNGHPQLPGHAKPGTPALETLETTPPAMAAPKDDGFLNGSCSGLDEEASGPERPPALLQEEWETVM
Experimental: The kinetics of PTHR1 (PTH Receptor 1) internalization for compounds of the invention are determined following ligand binding to membrane receptors. HEK 293 cells are transfected with PTHR-emGFP plasmid (Invitrogen).
The cells are seeded at 7,000 cells/well, 100 μL/well into clear bottomed, black, 96 well plate coated with poly-D lysine. 24 hours after being seeded into the 96 well plate, the cells are dosed with 10 μL of a compound to be tested, at final concentrations of 100 nM at staggered time points from 0 minutes to 3 hours. Media is aspirated at end point of dosing. Cells are fixed with 100 μL Prefer (Anatech, Battle Creek, Mich.) for 30 minutes. Prefer is aspirated from the cells, and cells are washed three times with 100 μL 1×PBS. Cells are stained with 100 μL diluted Hoechst nuclear stain (diluted in 1×PBS) for 30 minutes. Hoechst stain is aspirated and replaced with 1×PBS. Plates are stored in the dark at 4° C. until scanning. Cells are scanned within 48 hours using a Cellomics® ArrayScan. Representative data from various timepoints, set forth as percent of vehicle only control (baseline=100%), are presented in Table 8.

[3] = system: aged osteopenic ovariectomized rats; assay: Direct comparison of 2 kD and 5 kD pegylated SEQ ID NO: 1 in aged osteopenic ovariectomized rats; assay type: in vivo, rat; settings: for Serum Calcium: 24 hours after dosing
Description: A compound of the invention with SEQ ID NO: 1, wherein the mPEG to which it is conjugated is a 2 kD mPEG, is directly compared to a compound of the invention with SEQ ID NO: 1, wherein the mPEG to which it is conjugated is a 5 kD mPEG. Aged osteopenic ovariectomized rats are permitted to lose bone for one month before dosing (nmol/kg as in Table 5 and 6) every 6 days with vehicle alone, or the 2 kD pegylated SEQ ID NO: 1 compound or the 5 kD pegylated SEQ ID NO: 1 compound for 8 weeks.

[4] = 11 nmol/kg every 6 days for 8 weeks
[5] = 32 nmol/kg every 6 days for 8 weeks
[6] = 110 nmol/kg every 6 days for 8 weeks

Substance | PTHR1 internalization, percent of vehicle only control (baseline=100%) ([2]; 20 min) | PTHR1 internalization, percent of vehicle only control (baseline=100%) ([2]; 40 min) | PTHR1 internalization, percent of vehicle only control (baseline=100%) ([2]; 60 min) | PTHR1 internalization, percent of vehicle only control (baseline=100%) ([2]; 180 min) | Hypercalcemic Dose/Femoral Neck Strength Dose [1] | Hypercalcemic Dose/Midshaft Strength Dose [1] | Hypercalcemic Dose/Vertebral BMC Dose [1] | Hypercalcemic Dose/Vertebral BMD Dose [1] | Hypercalcemic Dose/Vertebral Strength Dose [1] | Vertebral BMC Dose [1] | Vertebral BMD Dose [1] | Fem Neck Strength Dose [1] | Midshaft Strength Dose [1] | Vertebral Strength Dose [1] | Hypercalcemia Dose [1] | further results
PTH(1-38): positive control, parathyroid hormone fragment 1-38 (SVSEIQLMHNLGKHLNSMERVEWLRKKLQDVHNFVALG) [reference compound] | 166% | 177% | 224% | 175% | – | – | – | – | – | – | – | – | – | – | – | Restoration of vertebral BMD from Ovx to sham vehicle control levels ([1]; 3-5 μg/kg/d, positive control): confirmed
SEQ ID NO: 1 but unpegylated and Lysine at amino acid 26: unpegylated molecule with the backbone of SEQ ID NO: 1 with a lysine residue at position 26 (SVSEIQLMHNLGRHLASMERVEWLRKLLQDVHNF-NH2) | 106% | 126% | 113% | 142% | – | – | – | – | – | – | – | – | – | – | – | –
SEQ ID NO: 1 with 2 kD mPEG (SVSEIQLMHNLGRHLASMERVEWLRKLLQDVHNF-NH2; not fully specified (residue 26)) | – | – | – | – | >10.0 | >3.43 | >3.43 | >1.0 | >10.0 | 32 nmol/kg | 110 nmol/kg | 11 nmol/kg | 32 nmol/kg | 11 nmol/kg | >110 nmol/kg | Hypercalcemia at the highest dose tested ([1]; aged Ovx rats): absence of hypercalcemia; Vertebral BMD [3, 4]: 590 mg/cc; Serum Calcium [3, 4]: 10.45 mg/dL; Vertebral BMD [3, 5]: 603 mg/cc; Serum Calcium [3, 5]: 10.38 mg/dL; Vertebral BMD [3, 6]: 623 mg/cc; Serum Calcium [3, 6]: 10.25 mg/dL
SEQ ID NO: 3 with 2 kD mPEG (PVSEIQLMHNLGRHLASMERVEWLRKLLQDVHNF-NH2; also: 2 kD mPEG, site not given here) | – | – | – | – | 8.8 | 8.8 | 8.8 | >0.9 | >0.9 | 11 nmol/kg | >110 nmol/kg | 11 nmol/kg | 11 nmol/kg | >110 nmol/kg | 97 nmol/kg | –
